{
  "source": "paper PMC9037526",
  "target": "Vip3Aa protoxin (proVip3Aa, without Flag tag) (Bacillus thuringiensis)",
  "assay": "MST; labeled proVip3Aa (333 nM) or labeled actVip3Aa (216 nM) kept constant, GST-PHB2 titrated from 0.2 nM to 7 μM; PBS pH 7.5; Monolith NT.115 Pico",
  "data": [
    {"substance": "GST-PHB2 (prohibitin 2 of Spodoptera frugiperda fused to glutathione-S-transferase) (natural protein)", "values": [
      {"measurement": "Kd", "value": 45.9, "unit": "nM"}
    ]}
  ]
}
